Measured values as given in patent US20220073643A1 (NANJING GENSCRIPT BIOTECH, published 2022).
Where two headings read alike, the source gives them in different places.

Assays:
[1] = target: T1, human Claudin18.2 (human); experiment: FACS, Claudin18.2-HEK293 cells
T1 construct: also called CLDN18.2
Description: (§1) The binding of chimeric antibodies to Claudin18.2 expressed on HEK293 cells was determine by FACS analysis. Briefly, HEK293 cells expressing human Claudin18.2 as prepared in the foregoing Example were harvested and incubated with anti-Claudin18.2 mAbs at 4° C. for 40 min, followed by fluorophore (iFluor 647)-labeled goat […] IgG (H+L) secondary antibodies at 4° C. for 0.5 hour. The samples were then analyzed by flow cytometry.

[2] = target: T1, human Claudin18.2; experiment: FACS, Claudin18.2-HEK293 cells; remark: listed apart in the source
Description: as §1
After initial screening of cell binding with transfected supernatants, the binding pattern of chimeric and up to 3 humanized antibodies on Claudin18.2 expressed on HEK293 cells were plotted with antibody in 3× serial dilutions, starting concentration of 45 μg/ml, following the protocol described in Example 3.

[3] = target: T1, human Claudin18.2; experiment: cell-based or functional assay
[4] = target: T1, human Claudin18.2; experiment: cell-based or functional assay; remark: listed apart in the source

EC50 [1] | EC50 [2] | Span [2] | Binder | other results
1.36 nM | – | – | chimeric 201F4H6 (antibody, human IgG1, kappa, V domains shown, chimeric, human IgG1/kappa constant regions) VH: QVQLKESGPGLVAPSQSLSITCTVSGFSLTSYGVSWVRQPPGKGLECLGVIWAGGNTNYNSALMSRLSISKDKSKSQVFLKMNSLQTDDTAMYYCARVYYGNAMDYWGQGTSVTVSS VL: DIVMTQSPSSLTVTAGEKVTMSCKSSQSLLNSGNQKSYLTWYQQRPGQPPKLLIYWASTRESGVPDRFTGSGSGTDFTLTISSVQAEDLAVYFCQNVYFFPFTFGSGTKLETKR | –
– | 0.794 µg/mL | 4300 | humanized 370E2B12C3-VH3 + VL2 (antibody, human IgG1, kappa, V domains shown, humanized, human IgG1/kappa constant regions) VH: QVQLVESGGGVVQPGRSLRLSCAASGFSLTTYGVHWVRQAPGKGLEWVAVIWAGGSTNYNSALMSRFTISRDNSKNTLYLQMNSLRAEDTAVYYCARAAYYGNGLDYWGQGTMVTVSS VL: DIVMTQSPLSLPVTPGEPASISCKSSQTLLNSGNQKNYLTWYLQKPGQSPQLLIYWASTGESGVPDRFSGSGSGTDFTLKISRVEAEDVGVYYCQNAYFYPFTFGGGTKVEIKR | –
– | 1.17 µg/mL | 5520 | humanized 370E2B12C3-VH3 + VL3 (antibody, human IgG1, kappa, V domains shown, humanized, human IgG1/kappa constant regions) VH: QVQLVESGGGVVQPGRSLRLSCAASGFSLTTYGVHWVRQAPGKGLEWVAVIWAGGSTNYNSALMSRFTISRDNSKNTLYLQMNSLRAEDTAVYYCARAAYYGNGLDYWGQGTMVTVSS VL: DVVMTQSPLSLPVTLGQPASISCKSSQTLLNSGNQKNYLTWFQQRPGQSPRRLIYWASTGESGVPDRFSGSGSGTDFTLKISRVEAEDVGVYYCQNAYFYPFTFGGGTKVEIKR | –
– | 0.16 µg/mL | 14200 | humanized 246B5F2-VH1 + VL1 (antibody, human IgG1, kappa, V domains shown, humanized, human IgG1/kappa constant regions) VH: EVQLLESGGGLVQPGGSLRLSCAASEFTFSNYAMSWVRQAPGKGLEWVSTISSGRSSTYYPDSVKGRFTISRDNSKNTLYLQMNSLRAEDTAVYYCAKLGRGNAMEYWGQGTLVTVSS VL: DIVMTQSPDSLAVSLGERATINCKSSQSLLNSGNQKNYLTWYQQKPGQPPKLLIYWASTRESGVPDRFSGSGSGTDFTLTISSLQAEDVAVYYCQNAYSYPFTFGGGTKLEIKR | –
– | 0.373 µg/mL | 65900 | humanized 412B6E4-VH1 + VL1.1 (antibody, human IgG1, kappa, V domains shown, humanized, human IgG1/kappa constant regions) VH: EVQLVESGGGLVQPGGSLRLSCAASGFTFSSFGVHWVRQAPGKGLEWVSYISSGSSTIYYAHSVKGRFTISRDNAKNSLYLQMNSLRAEDTAVYYCARFYYGNSFAYWGQGTLVTVSS VL: DIVMTQSPDSLAVSLGERATMSCKSSQSLLNSGNQKNYLTWYQQKPGQPPKMLIYWASTRESGVPDRFSGSGSGTDFTLTISSLQAEDVAVYYCQNAYTYPLTFGQGTKLEIKR | –
– | 0.826 µg/mL | 4650 | humanized 370E2B12C3-VH3 + VL1 (antibody, human IgG1, kappa, V domains shown, humanized, human IgG1/kappa constant regions) VH: QVQLVESGGGVVQPGRSLRLSCAASGFSLTTYGVHWVRQAPGKGLEWVAVIWAGGSTNYNSALMSRFTISRDNSKNTLYLQMNSLRAEDTAVYYCARAAYYGNGLDYWGQGTMVTVSS VL: DIVMTQSPDSLAVSLGERATINCKSSQTLLNSGNQKNYLTWYQQKPGQPPKLLIYWASTGESGVPDRFSGSGSGTDFTLTISSLQAEDVAVYYCQNAYFYPFTFGGGTKLEIKR | –
– | 0.571 µg/mL | 71300 | humanized 412B6E4-VH1.1 + VL1.1 (antibody, human IgG1, kappa, V domains shown, humanized, human IgG1/kappa constant regions) VH: EVQLVESGGGLVQPGGSLRLSCAASGFTFSSFGVHWVRQAPGKGLEWVAYISSGSSTIYYAHSVKGRFTISRDNAKNSLFLQMNSLRAEDTAVYYCARFYYGNSFAYWGQGTLVTVSS VL: DIVMTQSPDSLAVSLGERATMSCKSSQSLLNSGNQKNYLTWYQQKPGQPPKMLIYWASTRESGVPDRFSGSGSGTDFTLTISSLQAEDVAVYYCQNAYTYPLTFGQGTKLEIKR | –
– | 0.555 µg/mL | 64500 | humanized 410H6H3-VH1.2 + VL1.1 (antibody, human IgG1, kappa, V domains shown, humanized, human IgG1/kappa constant regions) VH: EVQLVESGGGLVQPGGSRRLSCAASGFTFSSSGMHWVRQAPGKGLEWVSYISSGSNTIYYADTLKGRFTISRDNAKNTLFLQMNSLRAEDTAVYYCARIYYGNSFVYWGQGTLVTVSS VL: DIVMTQSPDSLAVSLGERATMSCKSSQSLLNSGNQKNYLTWYQQKPGQPPKMLIYWASTRESGVPDRFSGSGSGTDFTLTISSLQAEDVAVYYCQNNYYYPLTFGQGTKLEIKR | –
– | 0.33 µg/mL | 72100 | humanized 410H6H3-VH1 + VL1 (antibody, human IgG1, kappa, V domains shown, humanized, human IgG1/kappa constant regions) VH: EVQLVESGGGLVQPGGSLRLSCAASGFTFSSSGMHWVRQAPGKGLEWVSYISSGSNTIYYADTLKGRFTISRDNAKNSLYLQMNSLRAEDTAVYYCARIYYGNSFVYWGQGTLVTVSS VL: DIVMTQSPDSLAVSLGERATINCKSSQSLLNSGNQKNYLTWYQQKPGQPPKLLIYWASTRESGVPDRFSGSGSGTDFTLTISSLQAEDVAVYYCQNNYYYPLTFGQGTKLEIKR | –
– | 0.512 µg/mL | 70300 | humanized 412B6E4-VH1.2 + VL1.1 (antibody, human IgG1, kappa, V domains shown, humanized, human IgG1/kappa constant regions) VH: EVQLVESGGGLVQPGGSRRLSCAASGFTFSSFGVHWVRQAPGKGLEWVSYISSGSSTIYYAHSVKGRFTISRDNAKNTLFLQMNSLRAEDTAVYYCARFYYGNSFAYWGQGTLVTVSS VL: DIVMTQSPDSLAVSLGERATMSCKSSQSLLNSGNQKNYLTWYQQKPGQPPKMLIYWASTRESGVPDRFSGSGSGTDFTLTISSLQAEDVAVYYCQNAYTYPLTFGQGTKLEIKR | –
– | 0.372 µg/mL | 73000 | humanized 410H6H3-VH1.2 + VL1 (antibody, human IgG1, kappa, V domains shown, humanized, human IgG1/kappa constant regions) VH: EVQLVESGGGLVQPGGSRRLSCAASGFTFSSSGMHWVRQAPGKGLEWVSYISSGSNTIYYADTLKGRFTISRDNAKNTLFLQMNSLRAEDTAVYYCARIYYGNSFVYWGQGTLVTVSS VL: DIVMTQSPDSLAVSLGERATINCKSSQSLLNSGNQKNYLTWYQQKPGQPPKLLIYWASTRESGVPDRFSGSGSGTDFTLTISSLQAEDVAVYYCQNNYYYPLTFGQGTKLEIKR | –
– | 0.283 µg/mL | 14700 | humanized 246B5F2-VH1.1 + VL1.1 (antibody, human IgG1, kappa, V domains shown, humanized, human IgG1/kappa constant regions) VH: EVQLLESGGGLVQPGGSLRLSCAASEFTFSNYAMSWVRQAPGKRLEWVATISSGRSSTYYPDSVKGRFTISRDNSKNTLYLQMNSLRAEDTAVYYCAGLGRGNAMEYWGQGTLVTVSS VL: DIVMTQSPDSLAVSLGERATISCKSSQSLLNSGNQKNYLTWYQQKPGQPPKLLIYWASTRESGVPDRFTGSGSGTDFTLTISSLQAEDVAVYYCQNAYSYPFTFGGGTKLEIKR | –
0.796 nM | – | – | chimeric 194D3B2 (antibody, human IgG1, kappa, V domains shown, chimeric, human IgG1/kappa constant regions) VH: QAYLQQSGAELVRSGASVKMSCKASGYPFTSYNMHWVKQTPGQGLEWVGYIYPGNGGTNYNQKFRDKATLTADTSSSTAYMQISRLTSDDSAVYFCLTGRGFAYWGQGTLVTVSA VL: DIVMTQSPSSLIVTPGERVTMSCKSSQSLLNSGNQKNYLTWYQQKPGQPPKLLIYRASTRESGVPDRFTGSGSGTDFTLTISSVQAEDLAVYYCQNDYSYPLTFGIGTKLELKR | CDC % Relative activity [3]: 793%; CDC EC50 [3]: 0.34 µg/mL; ADCC % Relative activity [4]: 83.6%; ADCC EC50 [4]: 0.0291 µg/mL
1.3 nM | – | – | chimeric 182D10F1 (antibody, human IgG1, kappa, V domains shown, chimeric, human IgG1/kappa constant regions) VH: QAYLQQSGAELVRSGASVKMSCKASGYTFSSYNMHWVKQTPGQGLEWIGYIYPGNGGTNYNQKFKGKATLTADTSSSTAYMQISSLTSEDSAVYFCLTGRGFTYWGQGTLVTVSA VL: DIVMTQSPSSLTVTAGEKVTMNCKSSQSLFNSGNQKNYLTWYQQKPGQPPKLLIYRASTRESGVPDRFTGSGSGTDFTLTISSVQAEDLAVYYCQNDYSYPLTFGVGTKLELKR | –
0.798 nM | – | – | chimeric 252F1B10 (antibody, human IgG1, kappa, V domains shown, chimeric, human IgG1/kappa constant regions) VH: QAYLQQSGAELVRSGASVKMSCKASGYTFTSHNMHWVKQTPGQGLEWIGYIYPGNGGTNYNQKFKGKATLTADTSSSTAYMQINSLTSEDSAVYFCTRDYYGNSFAYWGQGTLVTVSA VL: DIVMTQSPSSLTEKAGERVSMSCKSSQSLFNSGNQKNYLTWYQQKPGQPPKLLIYWASTRESGVPDRFTGSGSGTDFTLTISSVQAEDLAVYYCQNDYRYPFTFGAGTKLELKR | CDC % Relative activity [3]: 937%; CDC EC50 [3]: 0.288 µg/mL; ADCC % Relative activity [4]: 85.9%; ADCC EC50 [4]: 0.0357 µg/mL
2.6 nM | – | – | chimeric 234B9D4 (antibody, human IgG1, kappa, V domains shown, chimeric, human IgG1/kappa constant regions) VH: EIQLQQSGPDLMKPGSSVKISCTASGYSFTSYYIHWVKQSHGKTLEWIGYIDPFNGGTRYNQKFEGKAALTVDKSSTTAYMHLTSLTSDDSAVYYCASLRFFTYWGQGTLVTVSA VL: DIVMTQSPSSLTVTAGEKVTMTCKSSQSLLNSGNQENYLTWYQQKPGQPPKLLISRASTRQSGVPDRFTGSGSGTDFTLTISSVQAEDLAVYYCQNDYSYPLTFGAGTKLELKR | –
0.551 nM | – | – | chimeric 203A6C9 (antibody, human IgG1, kappa, V domains shown, chimeric, human IgG1/kappa constant regions) VH: QVQLKQSGPGLVQPSQSLSITCTVSGFSLTRYGVHWVRQSPGKGLEWLGVIWSGGNTDYNAAFISRLNIRKDNSKSQVFFKMNSLKPNDTAIYYCARAAYFGNSFDYWGQGTTLTVSS VL: DIVMTQSPSSLPVTAGEKVTMSCKSSQSLLNSGNQKNYLTWYQQKPGQPPKLLIYWASTRDSGVPDRFTGSGSGTDFTLTISSVQAEDLAVYYCQNNYIYPLTFGAGTKLELKR | CDC % Relative activity [3]: 1040%; CDC EC50 [3]: 0.261 µg/mL; ADCC % Relative activity [4]: 66.4%; ADCC EC50 [4]: 0.0367 µg/mL
1.53 nM | – | – | chimeric 241H10A1 (antibody, human IgG1, kappa, V domains shown, chimeric, human IgG1/kappa constant regions) VH: QVQLQQSGAELVKPGASVKLSCKASGYTFTSFGINWLRQRPEQGLEWIGWIFPGDGNSKYNENFKGKATLTTDKSSSTAYMQVTRLTSEDSAVYFCARFYYGNSFANWGQGTLVTVSA VL: DIVMTQSPSSLTVTAGEKVTMSCKSSQSLLNSGNQKNYLTWYQQKPGQPPKLLIYWAATRESGVPDRFTGSGSGTDFTLTISSVQAEDLAVYYCQNDYFYPFTFGGGTKLELKR | –
0.61 nM | – | – | chimeric 222B6G5 (antibody, human IgG1, kappa, V domains shown, chimeric, human IgG1/kappa constant regions) VH: QTYLQQSGAELVRSGASVKMSCKASGYTFTSYNIHWVKQTPGQGLEWIGYISPGNGGTYYNLKFKDKATLTTATSSSTAYMQISSLTSEDSAVYFCATGRGFAYWGQGTLVTVSA VL: DIVMTQSPSSLTVTPGEKVTMSCKSSQSLFNSGNQKNYLIWYQQKPGQPPKLLIYRASTRDSGVPDRFTGSGSGTDFTLTISNVQAEDLAVYYCQNDYSYPLTFGAGTKLELKR | CDC % Relative activity [3]: 1320%; CDC EC50 [3]: 0.205 µg/mL; ADCC % Relative activity [4]: 131%; ADCC EC50 [4]: 0.0276 µg/mL
